Measurements as given in patent US20120172295A1 (INDIANA UNIVERSITY RESEARCH AND TECHNOLOGY, published 2012).
Read-outs that look alike come from different tables or passages of the source. Starred links: 1 amine or outer side, 2 acyl side, 3 side chain; linkers in the order of their positions; H or OH if unused. Non-standard residues stand in square brackets, D forms with d. Groups on a side chain read outwards from the residue. No end group written: not given here. *: point of attachment. γGlu = O=C(O)[C@H](CCC(=O)[*:2])N[*:1]; Palmitoyl = CCCCCCCCCCCCCCCC(=O)*; Myristoyl = CCCCCCCCCCCCCC(=O)*; Aib = CC(C)(N)C(=O)O

Experiments:
Experiment in all cases: cell-based or functional assay
glucagon receptor [1] = biological target: T1, glucagon receptor (UniProt P47871 26-477, limits assumed)
GLP-1 receptor [2] = biological target: T2, GLP-1 receptor (UniProt P43220 24-463, limits assumed)
GIP receptor [3] = biological target: T3, GIP receptor (UniProt P48546 22-466)
T3 sequence (looked up): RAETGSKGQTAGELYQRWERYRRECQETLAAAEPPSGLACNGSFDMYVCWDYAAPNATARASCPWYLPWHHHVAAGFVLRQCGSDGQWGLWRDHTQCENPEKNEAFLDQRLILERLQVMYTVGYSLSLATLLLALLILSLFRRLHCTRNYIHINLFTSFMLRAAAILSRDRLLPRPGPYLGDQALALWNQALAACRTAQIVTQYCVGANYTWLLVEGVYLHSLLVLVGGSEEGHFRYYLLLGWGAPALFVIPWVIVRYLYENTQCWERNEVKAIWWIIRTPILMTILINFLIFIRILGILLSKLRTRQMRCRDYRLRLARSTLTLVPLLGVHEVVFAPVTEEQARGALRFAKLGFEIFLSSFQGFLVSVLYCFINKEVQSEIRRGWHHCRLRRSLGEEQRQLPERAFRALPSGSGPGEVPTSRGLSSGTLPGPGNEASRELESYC

glucagon receptor [4] = biological target: T1, glucagon receptor; remark: listed apart in the source
GLP-1 receptor [5] = biological target: T2, GLP-1 receptor; remark: listed apart in the source
GIP receptor [6] = biological target: T3, GIP receptor; remark: listed apart in the source
glucagon receptor [7] = biological target: T1, glucagon receptor; remark: listed apart in the source
GLP-1 receptor [8] = biological target: T2, GLP-1 receptor; remark: listed apart in the source
GIP receptor [9] = biological target: T3, GIP receptor; remark: listed apart in the source
glucagon receptor [10] = biological target: T1, glucagon receptor; remark: listed apart in the source

T1 sequence (P47871 26-477 limits assumed): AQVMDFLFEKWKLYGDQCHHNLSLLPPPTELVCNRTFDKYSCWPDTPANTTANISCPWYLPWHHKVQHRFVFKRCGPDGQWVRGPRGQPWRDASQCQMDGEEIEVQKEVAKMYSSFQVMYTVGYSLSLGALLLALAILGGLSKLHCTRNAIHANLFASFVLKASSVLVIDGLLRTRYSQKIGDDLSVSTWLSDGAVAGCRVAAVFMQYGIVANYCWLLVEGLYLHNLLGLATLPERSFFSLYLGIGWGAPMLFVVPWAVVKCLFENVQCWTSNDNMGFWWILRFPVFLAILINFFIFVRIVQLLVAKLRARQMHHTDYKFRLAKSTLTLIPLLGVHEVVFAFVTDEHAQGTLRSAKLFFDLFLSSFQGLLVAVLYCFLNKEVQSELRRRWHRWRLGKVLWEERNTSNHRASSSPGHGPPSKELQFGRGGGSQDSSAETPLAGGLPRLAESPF

Binder | % Relative activity (glucagon receptor [1]) [%] | % Relative activity (GLP-1 receptor [2]) [%] | % Relative activity (GIP receptor [3]) [%] | % Relative activity (glucagon receptor [4]) [%] | % Relative activity (GLP-1 receptor [5]) [%] | % Relative activity (GIP receptor [6]) [%] | % Relative activity (glucagon receptor [7]) [%] | EC50 (glucagon receptor [7]) [nM] | % Relative activity (GLP-1 receptor [8]) [%] | % Relative activity (GIP receptor [9]) [%] | EC50 (GLP-1 receptor [8]) [nM] | EC50 (GIP receptor [9]) [nM] | % Relative activity (glucagon receptor [10]) [%]
H[Aib]QGTFTSDYSKYLD[Aib]RRAQDFVQWLMNTGPSSGAPPPSK([γGlu-γGlu-Palmitoyl])-NH2 (N-terminus assumed; SMILES CCCCCCCCCCCCCCCC(=O)N[C@@H](CCC(=O)N[C@@H](CCC(=O)NCCCC[C@H](NC(=O)[C@H](CO)NC(=O)[C@@H]1CCCN1C(=O)[C@@H]1CCCN1C(=O)[C@@H]1CCCN1C(=O)[C@H](C)NC(=O)CNC(=O)[C@H](CO)NC(=O)[C@H](CO)NC(=O)[C@@H]1CCCN1C(=O)CNC(=O)[C@@H](NC(=O)[C@H](CC(N)=O)NC(=O)[C@H](CCSC)NC(=O)[C@H](CC(C)C)NC(=O)[C@H](Cc1c[nH]c2ccccc12)NC(=O)[C@H](CCC(N)=O)NC(=O)[C@@H](NC(=O)[C@H](Cc1ccccc1)NC(=O)[C@H](CC(=O)O)NC(=O)[C@H](CCC(N)=O)NC(=O)[C@H](C)NC(=O)[C@H](CCCNC(=N)N)NC(=O)[C@H](CCCNC(=N)N)NC(=O)C(C)(C)NC(=O)[C@H](CC(=O)O)NC(=O)[C@H](CC(C)C)NC(=O)[C@H](Cc1ccc(O)cc1)NC(=O)[C@H](CCCCN)NC(=O)[C@H](CO)NC(=O)[C@H](Cc1ccc(O)cc1)NC(=O)[C@H](CC(=O)O)NC(=O)[C@H](CO)NC(=O)[C@@H](NC(=O)[C@H](Cc1ccccc1)NC(=O)[C@@H](NC(=O)CNC(=O)[C@H](CCC(N)=O)NC(=O)C(C)(C)NC(=O)[C@@H](N)Cc1c[nH]cn1)[C@@H](C)O)[C@@H](C)O)C(C)C)[C@@H](C)O)C(N)=O)C(=O)O)C(=O)O) [Peptide 900] | 560 | 383 | 2.89 |  |  |  |  |  |  |  |  |  | 
H[Aib]QGTFTSDK([γGlu-γGlu-Palmitoyl])SKYLD[Aib]RRAQDFVQWLMNTGPSSGAPPPS-NH2 (N-terminus assumed; SMILES CCCCCCCCCCCCCCCC(=O)N[C@@H](CCC(=O)N[C@@H](CCC(=O)NCCCC[C@H](NC(=O)[C@H](CC(=O)O)NC(=O)[C@H](CO)NC(=O)[C@@H](NC(=O)[C@H](Cc1ccccc1)NC(=O)[C@@H](NC(=O)CNC(=O)[C@H](CCC(N)=O)NC(=O)C(C)(C)NC(=O)[C@@H](N)Cc1c[nH]cn1)[C@@H](C)O)[C@@H](C)O)C(=O)N[C@@H](CO)C(=O)N[C@@H](CCCCN)C(=O)N[C@@H](Cc1ccc(O)cc1)C(=O)N[C@@H](CC(C)C)C(=O)N[C@@H](CC(=O)O)C(=O)NC(C)(C)C(=O)N[C@@H](CCCNC(=N)N)C(=O)N[C@@H](CCCNC(=N)N)C(=O)N[C@@H](C)C(=O)N[C@@H](CCC(N)=O)C(=O)N[C@@H](CC(=O)O)C(=O)N[C@@H](Cc1ccccc1)C(=O)N[C@H](C(=O)N[C@@H](CCC(N)=O)C(=O)N[C@@H](Cc1c[nH]c2ccccc12)C(=O)N[C@@H](CC(C)C)C(=O)N[C@@H](CCSC)C(=O)N[C@@H](CC(N)=O)C(=O)N[C@H](C(=O)NCC(=O)N1CCC[C@H]1C(=O)N[C@@H](CO)C(=O)N[C@@H](CO)C(=O)NCC(=O)N[C@@H](C)C(=O)N1CCC[C@H]1C(=O)N1CCC[C@H]1C(=O)N1CCC[C@H]1C(=O)N[C@@H](CO)C(N)=O)[C@@H](C)O)C(C)C)C(=O)O)C(=O)O) [Peptide 901] | 560 | 460 | 8.65 |  |  |  |  |  |  |  |  |  | 
HXQGTFTSDYSKYLDEQAAKEFICWLMNGGPSSGAPPPSK (AIB at 2; Lys 40 acylated with a C14 fatty acyl group) [mt-345] |  |  |  | 193 | 153 | 5 | 193 | 0.0183 | 153 | 4.99 |  |  | 
H[Aib]QGTFTSDYSKYLD[Aib]QAAKEFICWLMNGGPSSGAPPPSK-NH2 (N-terminus assumed; SMILES CC[C@H](C)[C@H](NC(=O)[C@H](Cc1ccccc1)NC(=O)[C@H](CCC(=O)O)NC(=O)[C@H](CCCCN)NC(=O)[C@H](C)NC(=O)[C@H](C)NC(=O)[C@H](CCC(N)=O)NC(=O)C(C)(C)NC(=O)[C@H](CC(=O)O)NC(=O)[C@H](CC(C)C)NC(=O)[C@H](Cc1ccc(O)cc1)NC(=O)[C@H](CCCCN)NC(=O)[C@H](CO)NC(=O)[C@H](Cc1ccc(O)cc1)NC(=O)[C@H](CC(=O)O)NC(=O)[C@H](CO)NC(=O)[C@@H](NC(=O)[C@H](Cc1ccccc1)NC(=O)[C@@H](NC(=O)CNC(=O)[C@H](CCC(N)=O)NC(=O)C(C)(C)NC(=O)[C@@H](N)Cc1c[nH]cn1)[C@@H](C)O)[C@@H](C)O)C(=O)N[C@@H](CS)C(=O)N[C@@H](Cc1c[nH]c2ccccc12)C(=O)N[C@@H](CC(C)C)C(=O)N[C@@H](CCSC)C(=O)N[C@@H](CC(N)=O)C(=O)NCC(=O)NCC(=O)N1CCC[C@H]1C(=O)N[C@@H](CO)C(=O)N[C@@H](CO)C(=O)NCC(=O)N[C@@H](C)C(=O)N1CCC[C@H]1C(=O)N1CCC[C@H]1C(=O)N1CCC[C@H]1C(=O)N[C@@H](CO)C(=O)N[C@@H](CCCCN)C(N)=O) [mt-348] |  |  |  | 8.2 | 149 | 0.2 | 8.16 | 0.433 | 149 | 0.15 | 0.0037 | 1.76 | 
H[Aib]QGTFTSDYSKYLD[Aib]QAAKEFICWLMNGGPSSGAPPPSK(Myristoyl)-NH2 (N-terminus assumed; SMILES CCCCCCCCCCCCCC(=O)NCCCC[C@H](NC(=O)[C@H](CO)NC(=O)[C@@H]1CCCN1C(=O)[C@@H]1CCCN1C(=O)[C@@H]1CCCN1C(=O)[C@H](C)NC(=O)CNC(=O)[C@H](CO)NC(=O)[C@H](CO)NC(=O)[C@@H]1CCCN1C(=O)CNC(=O)CNC(=O)[C@H](CC(N)=O)NC(=O)[C@H](CCSC)NC(=O)[C@H](CC(C)C)NC(=O)[C@H](Cc1c[nH]c2ccccc12)NC(=O)[C@H](CS)NC(=O)[C@@H](NC(=O)[C@H](Cc1ccccc1)NC(=O)[C@H](CCC(=O)O)NC(=O)[C@H](CCCCN)NC(=O)[C@H](C)NC(=O)[C@H](C)NC(=O)[C@H](CCC(N)=O)NC(=O)C(C)(C)NC(=O)[C@H](CC(=O)O)NC(=O)[C@H](CC(C)C)NC(=O)[C@H](Cc1ccc(O)cc1)NC(=O)[C@H](CCCCN)NC(=O)[C@H](CO)NC(=O)[C@H](Cc1ccc(O)cc1)NC(=O)[C@H](CC(=O)O)NC(=O)[C@H](CO)NC(=O)[C@@H](NC(=O)[C@H](Cc1ccccc1)NC(=O)[C@@H](NC(=O)CNC(=O)[C@H](CCC(N)=O)NC(=O)C(C)(C)NC(=O)[C@@H](N)Cc1c[nH]cn1)[C@@H](C)O)[C@@H](C)O)[C@@H](C)CC)C(N)=O) [mt-347] |  |  |  | 111 | 67 | 0.7 | 111 | 0.0317 | 67.1 | 0.7 | 0.0082 | 0.383 | 
Y[Aib]EGTFTSDYSIYLDKQAA[Aib]EFVNWLLAGGPSSGAPPPSK(Palmitoyl) [mt-261] |  |  |  | 13.4 |  |  |  |  |  |  |  |  | 31.6
